Laboratory results taken from patent US20200140562A1.
Like-named read-outs stand apart in the source and are kept apart here. Each block holds one binder with its values, some of them ahead of it.

Key:
[1] = molecular target: human OX40 on cells (CHO-hOX40, 293HEK-hOX40, Jurkat-hOX40, activated primary CD4+ T cells) (human) (UniProt P43489); assay: flow cytometry, CHO-hOX40, […]
[2] = molecular target: human OX40 on cells (CHO-hOX40, 293HEK-hOX40, Jurkat-hOX40, activated primary CD4+ T cells) (human) (UniProt P43489); assay: flow cytometry, CHO-hOX40, 25 nM
[3] = molecular target: human OX40 on cells (CHO-hOX40, 293HEK-hOX40, Jurkat-hOX40, activated primary CD4+ T cells) (human) (UniProt P43489); assay: flow cytometry, CHO-hOX40, 50 nM
[4] = molecular target: human OX40 on cells (CHO-hOX40, 293HEK-hOX40, Jurkat-hOX40, activated primary CD4+ T cells) (human) (UniProt P43489); assay: flow cytometry, CHO-hOX40, 100 nM
[5] = molecular target: human OX40 on cells (CHO-hOX40, 293HEK-hOX40, Jurkat-hOX40, activated primary CD4+ T cells) (human) (UniProt P43489); assay: flow cytometry, CHO-hOX40, 200 nM
[6] = molecular target: human OX40 on cells (CHO-hOX40, 293HEK-hOX40, Jurkat-hOX40, activated primary CD4+ T cells) (human) (UniProt P43489); assay: flow cytometry, CHO-hOX40, 12.5 nM
[7] = molecular target: human OX40 on cells (CHO-hOX40, 293HEK-hOX40, Jurkat-hOX40, activated primary CD4+ T cells) (human) (UniProt P43489); assay: flow cytometry, CHO-hOX40, 6.25 nM
[8] = molecular target: human OX40 on cells (CHO-hOX40, 293HEK-hOX40, Jurkat-hOX40, activated primary CD4+ T cells) (human) (UniProt P43489); assay: flow cytometry, CHO-hOX40, 3.125 nM
[9] = molecular target: human OX40 on cells (CHO-hOX40, 293HEK-hOX40, Jurkat-hOX40, activated primary CD4+ T cells) (human) (UniProt P43489); assay: flow cytometry, CHO-hOX40, 0.78125 nM
[10] = molecular target: human OX40 on cells (CHO-hOX40, 293HEK-hOX40, Jurkat-hOX40, activated primary CD4+ T cells) (human) (UniProt P43489); assay: flow cytometry, CHO-hOX40, 0.390625 nM
[11] = molecular target: human OX40 on cells (CHO-hOX40, 293HEK-hOX40, Jurkat-hOX40, activated primary CD4+ T cells) (human) (UniProt P43489); assay: flow cytometry, CHO-hOX40, 0.1953125 nM
[12] = molecular target: human OX40 on cells (CHO-hOX40, 293HEK-hOX40, Jurkat-hOX40, activated primary CD4+ T cells) (human) (UniProt P43489); assay: flow cytometry, CHO-hOX40, 0.09765625 nM
[13] = molecular target: human OX40 on cells (CHO-hOX40, 293HEK-hOX40, Jurkat-hOX40, activated primary CD4+ T cells) (human) (UniProt P43489); assay: flow cytometry, CHO-hOX40, 0.024414063 nM
[14] = molecular target: human OX40 on cells (CHO-hOX40, 293HEK-hOX40, Jurkat-hOX40, activated primary CD4+ T cells) (human) (UniProt P43489); assay: flow cytometry, CHO-hOX40, 0.048828125 nM
[15] = molecular target: human OX40 on cells (CHO-hOX40, 293HEK-hOX40, Jurkat-hOX40, activated primary CD4+ T cells) (human) (UniProt P43489); assay: cell-based or functional assay
[16] = molecular target: human OX40 on cells (CHO-hOX40, 293HEK-hOX40, Jurkat-hOX40, activated primary CD4+ T cells) (human) (UniProt P43489); assay: flow cytometry, CHO-hOX40
[17] = molecular target: human OX40 on cells (CHO-hOX40, 293HEK-hOX40, Jurkat-hOX40, activated primary CD4+ T cells) (human) (UniProt P43489); assay: flow cytometry, CHO-hOX40, 100 nM; remark: listed apart in the source
[18] = molecular target: human OX40 on cells (CHO-hOX40, 293HEK-hOX40, Jurkat-hOX40, activated primary CD4+ T cells) (human) (UniProt P43489); assay: flow cytometry, 293HEK-hOX40, 8 nM
[19] = molecular target: human OX40 on cells (CHO-hOX40, 293HEK-hOX40, Jurkat-hOX40, activated primary CD4+ T cells) (human) (UniProt P43489); assay: flow cytometry, 293HEK-hOX40, 40 nM
[20] = molecular target: human OX40 on cells (CHO-hOX40, 293HEK-hOX40, Jurkat-hOX40, activated primary CD4+ T cells) (human) (UniProt P43489); assay: flow cytometry, 293HEK-hOX40, 1.6 nM
[21] = molecular target: human OX40 on cells (CHO-hOX40, 293HEK-hOX40, Jurkat-hOX40, activated primary CD4+ T cells) (human) (UniProt P43489); assay: flow cytometry, 293HEK-hOX40, 200 nM
[22] = molecular target: human OX40_Fc (R&D Systems) (human) (UniProt P43489); assay: BLI, IgG1 on tip, hOX40-Fc 50 nM, avid
Chain of human OX40_Fc (R&D Systems) (human) (P43489 29-216): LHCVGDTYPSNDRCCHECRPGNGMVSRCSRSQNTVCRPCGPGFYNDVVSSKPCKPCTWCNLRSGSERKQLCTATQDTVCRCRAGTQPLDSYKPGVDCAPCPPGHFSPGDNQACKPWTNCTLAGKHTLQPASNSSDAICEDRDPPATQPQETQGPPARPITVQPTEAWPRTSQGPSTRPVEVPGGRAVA

[23] = molecular target: human OX40_Fc (R&D Systems) (human) (UniProt P43489); assay: BLI, IgG1 on tip, hOX40-Fc 50 nM, avid; remark: listed apart in the source
[24] = molecular target: cyno OX40_Fc (Acro Biosystems) (cyno); assay: BLI, IgG1 on tip, cyno OX40-Fc 100 nM, avid
[25] = molecular target: cyno OX40_Fc (Acro Biosystems) (cyno); assay: BLI, IgG1 on tip, cyno OX40-Fc 100 nM, avid; remark: listed apart in the source
[26] = molecular target: human OX40 on cells (CHO-hOX40, 293HEK-hOX40, Jurkat-hOX40, activated primary CD4+ T cells) (human) (UniProt P43489); assay: flow cytometry, MFI on CHO-hOX40 over wild-type CHO
[27] = molecular target: human OX40 on cells (CHO-hOX40, 293HEK-hOX40, Jurkat-hOX40, activated primary CD4+ T cells) (human) (UniProt P43489); assay: as above; remark: listed apart in the source
[28] = molecular target: human OX40 on cells (CHO-hOX40, 293HEK-hOX40, Jurkat-hOX40, activated primary CD4+ T cells) (human) (UniProt P43489); assay: flow cytometry, activated CD4+ T cells, donor 1, 100 nM
[29] = molecular target: human OX40 on cells (CHO-hOX40, 293HEK-hOX40, Jurkat-hOX40, activated primary CD4+ T cells) (human) (UniProt P43489); assay: flow cytometry, activated CD4+ T cells, donor 2, 100 nM
[30] = molecular target: human OX40 on cells (CHO-hOX40, 293HEK-hOX40, Jurkat-hOX40, activated primary CD4+ T cells) (human) (UniProt P43489); assay: flow cytometry, CHO-hOX40, 100 nM blocker, competitor OX40L-hFc-fluorescein

Chain of human OX40 on cells (CHO-hOX40, 293HEK-hOX40, Jurkat-hOX40, activated primary CD4+ T cells) (human) (P43489 29-277): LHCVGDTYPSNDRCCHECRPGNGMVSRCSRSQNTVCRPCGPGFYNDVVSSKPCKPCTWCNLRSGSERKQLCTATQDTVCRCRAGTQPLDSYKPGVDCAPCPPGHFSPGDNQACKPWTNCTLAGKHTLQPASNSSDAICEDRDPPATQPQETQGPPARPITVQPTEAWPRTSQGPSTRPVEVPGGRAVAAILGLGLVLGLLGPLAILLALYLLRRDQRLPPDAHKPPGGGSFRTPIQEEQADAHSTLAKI

MFI [1]: 2900 MFI | MFI [2]: 22100 MFI | MFI [3]: 44100 MFI | MFI [4]: 93000 MFI | MFI [5]: 216000 MFI | MFI [6]: 11900 MFI | MFI [7]: 6400 MFI | MFI [8]: 4150 MFI | MFI [9]: 2250 MFI | MFI [10]: 1890 MFI | MFI [11]: 1680 MFI | MFI [12]: 1590 MFI | MFI [13]: 1510 MFI | MFI [14]: 1560 MFI
B1: IgG2 control (antibody, V domains shown)
VH: QLQLQKSGPGLVKPSETLSLTCTVSGFTFSNYAMGWIRQPPGKGLEWIGAISGSGGSTYYADSVKGRVTISVDTSKNQFSLKLSSVTAADTAVYYCARGGPGWYAADVWGQGTLVTVSS
VL: EIVLTQSPATLSLSPGERATLSCRASQSISSYLNWYQQKPGQAPRLLIYAASSLQSGIPARFSGSGSGTDFTLTISSLEPEDFAVYYCQQADLPAFAFGGGTKVEIKR

NFkB-Luc fold change in Jurkat stimulated by PHA+ anti-CD28 (fold over IgG4 control) [15]: 1.93 | NFkB-Luc fold change in Jurkat stimulated by anti-CD3+ anti-CD28 (fold over IgG4 control) [15]: 1.77 | EC50 [16]: 1.94 nM | MFI [1]: 1.25e+06 MFI | MFI [2]: 2.24e+06 MFI | MFI [3]: 2.34e+06 MFI | CHO-OX40 binding intensity (MFI) [4]: 164000 MFI | MFI [4]: 2.5e+06 MFI | CHO-OX40 binding intensity (MFI) [17]: 183000 MFI | MFI [5]: 2.64e+06 MFI | MFI [6]: 2.18e+06 MFI | MFI [7]: 2.02e+06 MFI | MFI [18]: 1.74e+06 MFI | MFI [8]: 1.77e+06 MFI | MFI [19]: 1.8e+06 MFI | MFI [20]: 650000 MFI | MFI [21]: 1.79e+06 MFI | MFI [9]: 600000 MFI | Kd [22]: 0.25 nM | Kd [23]: 0.475 nM | MFI [10]: 474000 MFI | MFI [11]: 181000 MFI | MFI [12]: 77600 MFI | MFI [13]: 26700 MFI | MFI [14]: 49800 MFI | Kd [24]: 4.96 nM | Kd [25]: 5.17 nM | Fold difference [26]: 2630 fold | Fold difference [27]: 1700 fold | MFI [28]: 115000 MFI | MFI [29]: 136000 MFI | MFI of OX40L signal on CHO-OX40 cells [30]: 25800 MFI
B2: Hu106-222, humanized IgG1 OX40 antibody (antibody, from another filing, V domains shown)
VH: QVQLVQSGSELKKPGASVKVSCKASGYTFTDYSMHWVRQAPGQGLKWMGWINTETGEPTYADDFKGRFVFSLDTSVSTAYLQISSLKAEDTAVYYCANPYYDYVSYYAMDYWGQGTTVTVSS
VL: DIQMTQSPSSLSASVGDRVTITCKASQDVSTAVAWYQQKPGKAPKLLIYSASYLYTGVPSRFSGSGSGTDFTFTISSLQPEDIATYYCQQHYSTPRTFGQGTKLEIK
